Test results published in PMC3097154, “Antiviral activity of α-helical stapled peptides designed from the HIV-1 capsid dimerization domain” (Retrovirology, 2011).
Where two headings read alike, the source gives them in different places.

Key:
[1] = biological target: C-terminal domain (CTD) of HIV-1 capsid (CA), wild type (HIV-1 (strain NL4-3)); test: ITC; Ki worked out from the rise of the apparent dimer dissociation constant of CTD with the NYAD-203 concentration, extrapolated to low (zero) peptide concentration; pH 7.3, 30 C
[2] = biological target: C-terminal domain (CTD) of HIV-1 capsid (CA), wild type (HIV-1 (strain NL4-3)); test: as above; remark: listed apart in the source
[3] = biological target: C-terminal domain (CTD) of HIV-1 capsid (CA), wild type (HIV-1 (strain NL4-3)); test: NMR titration
[4] = biological target: HIV-1 capsid CTD CTD (Human immunodeficiency virus 1) (UniProt O93182); conditions: cited from earlier work
Chain of HIV-1 capsid CTD CTD (Human immunodeficiency virus 1) (O93182 278-363): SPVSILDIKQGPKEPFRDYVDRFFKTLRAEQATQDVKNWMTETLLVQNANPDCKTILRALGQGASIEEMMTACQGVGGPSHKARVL

[5] = biological target: HIV-1 capsid CA (Human immunodeficiency virus 1) (UniProt O93182); conditions: cited from earlier work
[6] = biological target: C-terminal domain (CTD) of HIV-1 capsid (CA), wild type (HIV-1 (strain NL4-3)); test: ITC; dilution of CTD (ca. 250 uM) into buffer with 350 uM NYAD-203; 25 mM sodium phosphate pH 7.3, 30 C; apparent; dimer to monomers
[7] = biological target: C-terminal domain (CTD) of HIV-1 capsid (CA), wild type (HIV-1 (strain NL4-3)); test: ITC; dilution of CTD (ca. 250 uM) into buffer with 50 uM NYAD-203; 25 mM sodium phosphate pH 7.3, 30 C; apparent; dimer to monomers
[8] = biological target: C-terminal domain (CTD) of HIV-1 capsid (CA), wild type (HIV-1 (strain NL4-3)); test: ITC; dilution of CTD (ca. 250 uM) into buffer with 200 uM NYAD-203; 25 mM sodium phosphate pH 7.3, 30 C; apparent; dimer to monomers
[9] = biological target: C-terminal domain (CTD) of HIV-1 capsid (CA), wild type (HIV-1 (strain NL4-3)); test: ITC; dilution of CTD (ca. 250 uM in the syringe, 10 ul injections) into buffer without peptide; 25 mM sodium phosphate pH 7.3, 30 C; dimer to monomers

Chain of HIV-1 capsid CA (O93182 133-363): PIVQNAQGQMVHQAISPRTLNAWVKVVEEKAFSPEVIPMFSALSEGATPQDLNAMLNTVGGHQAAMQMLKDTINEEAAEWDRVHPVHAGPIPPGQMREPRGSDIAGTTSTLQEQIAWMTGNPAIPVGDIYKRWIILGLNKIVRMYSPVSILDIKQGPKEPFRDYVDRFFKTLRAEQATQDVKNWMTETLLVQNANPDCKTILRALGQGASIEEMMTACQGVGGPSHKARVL
Chain of CAC1 peptide (O93182 307-326): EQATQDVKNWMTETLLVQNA

## NYAD-203, hydrocarbon-stapled dimer interface peptide, soluble analog of NYAD-201
[1]
  Ki: 45 µM
[2]
  Ki: 40 µM
[3]
  Kd: < 10 µM

## CAC1 peptide (from UniProt O93182)
[4]
  Kd: 50 µM

## HIV-1 capsid CA (from UniProt O93182)
[5]
  Kd: 18 µM

## C-terminal domain (CTD) of HIV-1 capsid (CA), wild type (domain or fragment)
[6]
  apparent K diss with 350 uM NYAD-203: 40.5 µM
  apparent dH of dimer dissociation with 350 uM NYAD-203: 10.9 kcal/mol
[7]
  apparent K diss with 50 uM NYAD-203: 31.2 µM
  apparent dH of dimer dissociation with 50 uM NYAD-203: 9.1 kcal/mol
[8]
  apparent K diss with 200 uM NYAD-203: 33.2 µM
  apparent dH of dimer dissociation with 200 uM NYAD-203: 10.8 kcal/mol
[9]
  Kd: 15.3 µM
  dH of dimer dissociation: 10.7 kcal/mol
